Data as given in PMC9913075.

Target: Taspase1, endogenous in HeLa cells (human (endogenous in HeLa)) (UniProt Q9H6P5)
Test: proximity ligation; Duolink PLA on fixed HeLa cells with rabbit anti-Topoisomerase IIα/β and mouse anti-Taspase1; foci per nucleus counted

Chain of UniProt Q9H6P5 (Q9H6P5 whole entry): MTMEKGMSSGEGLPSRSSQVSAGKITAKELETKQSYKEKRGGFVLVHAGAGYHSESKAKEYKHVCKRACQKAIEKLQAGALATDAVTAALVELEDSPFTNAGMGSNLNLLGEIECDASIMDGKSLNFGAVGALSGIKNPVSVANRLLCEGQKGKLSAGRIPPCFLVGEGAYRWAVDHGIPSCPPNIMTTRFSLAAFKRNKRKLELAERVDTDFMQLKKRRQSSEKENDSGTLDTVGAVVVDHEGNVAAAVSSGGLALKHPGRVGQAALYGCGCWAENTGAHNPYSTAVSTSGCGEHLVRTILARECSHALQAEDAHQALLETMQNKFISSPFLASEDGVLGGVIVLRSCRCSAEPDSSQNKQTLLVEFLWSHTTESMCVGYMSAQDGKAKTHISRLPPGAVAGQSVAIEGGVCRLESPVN

In the case of “Topo IIα/β (endogenous, HeLa cells, detected with an antibody that recognises both isoforms)”, the PLA foci per nucleus (median) (foci per nucleus) is reported as 45.
